This passage reports Kd and koff results from paper PMC12469269 (2025).

Holding throughout (assay): SPR
The target in assay [1] is T1, Recombinant Human GRP75/HSPA9B/Mortalin His Protein (human, UniProt P38646 47-679).
Assay [2] has as its target T2, Recombinant Human Vimentin Protein, CF (human, UniProt P08670 1-466).
In assay [3] the target is T1, Recombinant Human GRP75/HSPA9B/Mortalin …. This is another data set of the same source.
The target of assay [4] is T2, Recombinant Human Vimentin Protein, CF. This is another data set of the same source.
The target in assay [5] is Mortalin peptide #62 (UniProt P38646).
For assay [6], the target named is Mortalin peptide #56 (UniProt P38646).

T2 sequence (P08670 whole entry): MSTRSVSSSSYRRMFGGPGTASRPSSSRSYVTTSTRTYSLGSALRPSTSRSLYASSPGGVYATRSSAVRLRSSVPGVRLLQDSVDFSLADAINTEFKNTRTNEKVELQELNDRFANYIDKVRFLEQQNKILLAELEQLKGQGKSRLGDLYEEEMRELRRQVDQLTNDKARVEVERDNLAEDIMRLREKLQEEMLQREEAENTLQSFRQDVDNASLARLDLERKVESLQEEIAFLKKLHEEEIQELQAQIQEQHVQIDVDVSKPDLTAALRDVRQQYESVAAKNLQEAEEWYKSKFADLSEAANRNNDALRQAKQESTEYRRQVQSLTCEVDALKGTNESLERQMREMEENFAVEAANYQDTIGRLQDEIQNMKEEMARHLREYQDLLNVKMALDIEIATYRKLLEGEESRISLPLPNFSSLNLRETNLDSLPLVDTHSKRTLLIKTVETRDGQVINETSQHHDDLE
T1 sequence (P38646 47-679): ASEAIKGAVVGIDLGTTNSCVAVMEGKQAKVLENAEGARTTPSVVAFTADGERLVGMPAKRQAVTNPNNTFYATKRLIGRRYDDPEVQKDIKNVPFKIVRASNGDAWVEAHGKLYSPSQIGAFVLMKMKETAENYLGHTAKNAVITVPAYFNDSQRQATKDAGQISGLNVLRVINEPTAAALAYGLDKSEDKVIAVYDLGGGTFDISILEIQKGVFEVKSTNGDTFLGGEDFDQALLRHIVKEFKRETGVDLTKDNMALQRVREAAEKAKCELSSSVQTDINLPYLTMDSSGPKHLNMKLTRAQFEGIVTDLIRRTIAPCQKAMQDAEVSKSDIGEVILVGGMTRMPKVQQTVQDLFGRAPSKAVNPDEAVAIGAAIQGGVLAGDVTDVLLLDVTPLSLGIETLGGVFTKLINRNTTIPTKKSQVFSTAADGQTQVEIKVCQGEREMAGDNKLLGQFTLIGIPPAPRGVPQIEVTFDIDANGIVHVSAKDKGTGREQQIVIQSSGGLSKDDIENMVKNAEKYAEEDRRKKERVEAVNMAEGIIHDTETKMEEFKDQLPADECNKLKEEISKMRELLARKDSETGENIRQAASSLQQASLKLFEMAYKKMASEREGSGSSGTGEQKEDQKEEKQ

B1: SMRwt peptide (peptide)
chain: VGFPV
Turning to B1, the results for the Kd in assay [1] and in assay [2] were 22.6 µM and 8.8 µM, respectively. The koff in assay [3] amounted to 0.0152 s⁻¹; in assay [4], 0.0566 s⁻¹.

B2: HIV-1 Nef protein (natural protein)
chain: MGGKWSKSSVVGWPTVRERMRRAEPAADGVGAASRDLEKHGAITSSNTAATNAACAWLEAQEEEEVGFPVTPQVPLRPMTYKAAVDLSHFLKEKGGLEGLIHSQRRQDILDLWIYHTQGYFPDWQNYTPGPGVRYPLTFGWCYKLVPVEPDKVEEANKGENTSLLHPVSLHGMDDPEREVLEWRFDSRLAFHHVARELHPEYFKNC
B2: the Kd is 1.9 µM in assay [5] and 76.9 µM in assay [6]. The koff turned out to be 0.0037 s⁻¹ in assay [5], 0.0285 s⁻¹ in assay [6], 0.0226 s⁻¹ in assay [3] and 0.000901 s⁻¹ in assay [4].
